Biological target: T1, VLP noro antigen derived from the norovirus GII/4, composed by associating 90 dimers of VP1 each including … (norovirus GII/4, UniProt P54635 1-539)
T1 construct: Virus-like particle of 90 VP1 dimers (180 copies); also called solid phase VLP
T1 chain: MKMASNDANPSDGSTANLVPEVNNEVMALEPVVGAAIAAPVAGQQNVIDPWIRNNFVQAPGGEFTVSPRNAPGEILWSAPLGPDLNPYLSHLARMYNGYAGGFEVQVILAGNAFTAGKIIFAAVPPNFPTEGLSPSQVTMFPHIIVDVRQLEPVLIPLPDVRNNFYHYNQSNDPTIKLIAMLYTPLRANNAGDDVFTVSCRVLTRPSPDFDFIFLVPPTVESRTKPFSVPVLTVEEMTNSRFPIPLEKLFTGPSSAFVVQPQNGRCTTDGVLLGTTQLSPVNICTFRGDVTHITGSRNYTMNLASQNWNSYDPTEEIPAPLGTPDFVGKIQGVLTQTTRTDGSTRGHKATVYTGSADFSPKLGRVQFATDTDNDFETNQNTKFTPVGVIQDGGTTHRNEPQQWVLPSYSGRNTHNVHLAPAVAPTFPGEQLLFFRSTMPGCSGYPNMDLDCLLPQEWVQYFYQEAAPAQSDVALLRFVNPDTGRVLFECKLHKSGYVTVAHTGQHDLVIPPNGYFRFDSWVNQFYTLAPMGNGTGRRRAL
Experiment: SPR (T200, CM3), VLP noro antigen immobilised, antibody as analyte

Binder	Kd [nM]	koff [s⁻¹]	kon [M⁻¹ s⁻¹]
Antibody bound to the protein represented by SEQ ID NO: 100 (structural domain SEQ ID NO: 38 - linker - protein molecule SEQ ID NO: 44) (VHH, tags not described) QVQLVESGGGVVQTGGSLRLSCAASGSTFSIGAMGWYRQAPGKQRELVATVNRASRTIYADSVRGRFTISRDNAKNLVYLQMNNLKPEDTAVYYCNVIATSASGRGVTSTSWGQGSQVTVSSGGGGSGGGASGGGGSQVQLVESGGGLVQAGKSLRLSCTASGSIPSIGVMGWHRQAPGKQRELVATISQGGHINYFESVKGRFTISRDNAKNTVYLQMNSLKPEDTGVYYCNAFWLPLRLNDYWGQGTQVTVSSEPKTPKPQSASAA	2.38	0.00698	2.93e+06
Antibody bound to the protein represented by SEQ ID NO: 102 (N to C: protein molecule SEQ ID NO: 44 - linker - structural domain SEQ ID NO: 39) (VHH, One chain; Made in E. coli; tags not described) QVQLVESGGGLVQAGKSLRLSCTASGSIPSIGVMGWHRQAPGKQRELVATISQGGHINYFESVKGRFTISRDNAKNTVYLQMNSLKPEDTGVYYCNAFWLPLRLNDYWGQGTQVTVSSGGGGSGGGASGGGGSQLQLVESGGGLVQAGGSLRLSCVASGFPFASSAMAWFRQAPGKEREFVASISYRGITTYYAQPVKGRFTMSRDNAKNTVYLQMNSLKPEDTAVYYCYAKSIWGNAYWGQGTQVTVSPEPKTPKPQSASAA	10.2	0.0109	1.07e+06
VHH antibody consisting of the amino acid sequence represented by SEQ ID NO: 67 (monomer antibody; includes the structural domain SEQ ID NO: 39) (VHH, also called Monomer Antibody 67) VHH: QLQLVESGGGLVQAGGSLRLSCVASGFPFASSAMAWFRQAPGKEREFVASISYRGITTYYAQPVKGRFTMSRDNAKNTVYLQMNSLKPEDTAVYYCYAKSIWGNAYWGQGTQVTVSP		0.0194	

From US20200062829A1 (PANASONIC INTELLECTUAL PROPERTY MANAGEMENT, published 2020)
